In article PMC8131915 (The Journal of Biological Chemistry, 2021):

B1: Taf12 (natural protein, S. cerevisiae (endogenous), UniProt Q03761 1-539, looked up)
chain: MSSNPENSGVNANNNTGTGNADAITGAQQNMVLQPRQLQEMAAKFRTLLTEARNVGETTPRGKELMFQAAKIKQVYDALTLNRRRQQAAQAYNNTSNSNSSNPASIPTENVPNSSQQQQQQQQQTRNNSNKFSNMIKQVLTPEENQEYEKLWQNFQVRHTSIKEKETYLKQNIDRLEQEINKQTDEGPKQQLQEKKIELLNDWKVLKIEYTKLFNNYQNSKKTFYVECARHNPALHKFLQESTQQQRVQQQRVQQQQQQQQQQQQQQQQQQQQQQQRQGQNQRKISSSNSTEIPSVTGPDALKSQQQQQNTITATNNPRGNVNTSQTEQSKAKVTNVNATASMLNNISSSKSAIFKQTEPAIPISENISTKTPAPVAYRSNRPTITGGSAMNASALNTPATTKLPPYEMDTQRVMSKRKLRELVKTVGIDEGDGETVIDGDVEELLLDLADDFVTNVTAFSCRLAKHRKSDNLEARDIQLHLERNWNIRIPGYSADEIRSTRKWNPSQNYNQKLQSITSDKVAAAKNNGNNVASLNTKK
B2: Ada1 (natural protein, S. cerevisiae (endogenous), UniProt Q12060 1-488, looked up)
chain: MSAIQSPAPKPLQPTYPAASPASTNAYMKPGLIGSPAVSNHTEPNNGNNETAEPQGPNQRIDLGAMIEELTSLLGKESWTKYAQIISLFILGKLSRKELSNELELVFSPSAASLEKSNTNHHHSLVRLHNQLLLGIFANSLRENPLGRNGNESSWGFGNGSNNPNNKLKRINKHNSQIEVYKKIVMSLPLNDRNRLKMITKEAGKRGFIFCSVFQARLNNIPKIPIVTNPESLKRVKSNNLKTPLEWSQDIMNGFNVPLASESHSLPDTDSFYLRMVGIAREHGLVGTVDARCVELISLALDQYLKNIIEFTIDTVRYRRKKYSDYYDLNESGLYKSVSEMAADKRDAKIKQLDDDKNEDECADEAKSINNGNNSSKDDIGDISMSSITKAGEAVNEELHENRTISLTNEDIYDSLSIFPNLVEPSGSYYALTNLGLVNDDELVDMKSNIDDLPDFLNEKPTFTPLDERNVGTRHELNWLIKGILTED
B3: 75-mer ssDNA, HIS4 promoter (ssDNA)
DNA: GCAGGAGGACGTAGGGTAGGACTATGAACAGTAGTATACTGTGTATATAATAGATATGGAACGTTATATTCACCT
B4: 75-mer dsDNA, HIS4 TATA-box promoter (dsDNA)
DNA 1: GCAGGAGGACGTAGGGTAGGACTATGAACAGTAGTATACTGTGTATATAATAGATATGGAACGTTATATTCACCT
DNA 2: AGGTGAATATAACGTTCCATATCTATTATATACACAGTATACTACTGTTCATAGTCCTACCCTACGTCCTCCTGC

Columns and labels:
[1] = molecular target: transcription-associated protein 1 (Tra1) (S. cerevisiae (endogenous), UniProt P38811 1-3744); assay: cross-linking
[2] = molecular target: SAGA complex (Spt7-TAP purified) (Saccharomyces cerevisiae, UniProt P35177;P38915;P38811;P50875;P06844;Q12060;P38129;P53040;Q05027;Q12030;Q03761;Q03 …); assay: fluorescence polarization
[3] = molecular target: SAGA complex (Spt7-TAP purified);TBP (Saccharomyces cerevisiae;Saccharomyces …, UniProt P35177;P38915;P38811;P50875;P06844;Q12060;P38129;P53040;Q05027;Q12030;Q03761;Q03 …, |); assay: EMSA

transcription-associated protein 1 (Tra1), sequence (P38811 whole entry): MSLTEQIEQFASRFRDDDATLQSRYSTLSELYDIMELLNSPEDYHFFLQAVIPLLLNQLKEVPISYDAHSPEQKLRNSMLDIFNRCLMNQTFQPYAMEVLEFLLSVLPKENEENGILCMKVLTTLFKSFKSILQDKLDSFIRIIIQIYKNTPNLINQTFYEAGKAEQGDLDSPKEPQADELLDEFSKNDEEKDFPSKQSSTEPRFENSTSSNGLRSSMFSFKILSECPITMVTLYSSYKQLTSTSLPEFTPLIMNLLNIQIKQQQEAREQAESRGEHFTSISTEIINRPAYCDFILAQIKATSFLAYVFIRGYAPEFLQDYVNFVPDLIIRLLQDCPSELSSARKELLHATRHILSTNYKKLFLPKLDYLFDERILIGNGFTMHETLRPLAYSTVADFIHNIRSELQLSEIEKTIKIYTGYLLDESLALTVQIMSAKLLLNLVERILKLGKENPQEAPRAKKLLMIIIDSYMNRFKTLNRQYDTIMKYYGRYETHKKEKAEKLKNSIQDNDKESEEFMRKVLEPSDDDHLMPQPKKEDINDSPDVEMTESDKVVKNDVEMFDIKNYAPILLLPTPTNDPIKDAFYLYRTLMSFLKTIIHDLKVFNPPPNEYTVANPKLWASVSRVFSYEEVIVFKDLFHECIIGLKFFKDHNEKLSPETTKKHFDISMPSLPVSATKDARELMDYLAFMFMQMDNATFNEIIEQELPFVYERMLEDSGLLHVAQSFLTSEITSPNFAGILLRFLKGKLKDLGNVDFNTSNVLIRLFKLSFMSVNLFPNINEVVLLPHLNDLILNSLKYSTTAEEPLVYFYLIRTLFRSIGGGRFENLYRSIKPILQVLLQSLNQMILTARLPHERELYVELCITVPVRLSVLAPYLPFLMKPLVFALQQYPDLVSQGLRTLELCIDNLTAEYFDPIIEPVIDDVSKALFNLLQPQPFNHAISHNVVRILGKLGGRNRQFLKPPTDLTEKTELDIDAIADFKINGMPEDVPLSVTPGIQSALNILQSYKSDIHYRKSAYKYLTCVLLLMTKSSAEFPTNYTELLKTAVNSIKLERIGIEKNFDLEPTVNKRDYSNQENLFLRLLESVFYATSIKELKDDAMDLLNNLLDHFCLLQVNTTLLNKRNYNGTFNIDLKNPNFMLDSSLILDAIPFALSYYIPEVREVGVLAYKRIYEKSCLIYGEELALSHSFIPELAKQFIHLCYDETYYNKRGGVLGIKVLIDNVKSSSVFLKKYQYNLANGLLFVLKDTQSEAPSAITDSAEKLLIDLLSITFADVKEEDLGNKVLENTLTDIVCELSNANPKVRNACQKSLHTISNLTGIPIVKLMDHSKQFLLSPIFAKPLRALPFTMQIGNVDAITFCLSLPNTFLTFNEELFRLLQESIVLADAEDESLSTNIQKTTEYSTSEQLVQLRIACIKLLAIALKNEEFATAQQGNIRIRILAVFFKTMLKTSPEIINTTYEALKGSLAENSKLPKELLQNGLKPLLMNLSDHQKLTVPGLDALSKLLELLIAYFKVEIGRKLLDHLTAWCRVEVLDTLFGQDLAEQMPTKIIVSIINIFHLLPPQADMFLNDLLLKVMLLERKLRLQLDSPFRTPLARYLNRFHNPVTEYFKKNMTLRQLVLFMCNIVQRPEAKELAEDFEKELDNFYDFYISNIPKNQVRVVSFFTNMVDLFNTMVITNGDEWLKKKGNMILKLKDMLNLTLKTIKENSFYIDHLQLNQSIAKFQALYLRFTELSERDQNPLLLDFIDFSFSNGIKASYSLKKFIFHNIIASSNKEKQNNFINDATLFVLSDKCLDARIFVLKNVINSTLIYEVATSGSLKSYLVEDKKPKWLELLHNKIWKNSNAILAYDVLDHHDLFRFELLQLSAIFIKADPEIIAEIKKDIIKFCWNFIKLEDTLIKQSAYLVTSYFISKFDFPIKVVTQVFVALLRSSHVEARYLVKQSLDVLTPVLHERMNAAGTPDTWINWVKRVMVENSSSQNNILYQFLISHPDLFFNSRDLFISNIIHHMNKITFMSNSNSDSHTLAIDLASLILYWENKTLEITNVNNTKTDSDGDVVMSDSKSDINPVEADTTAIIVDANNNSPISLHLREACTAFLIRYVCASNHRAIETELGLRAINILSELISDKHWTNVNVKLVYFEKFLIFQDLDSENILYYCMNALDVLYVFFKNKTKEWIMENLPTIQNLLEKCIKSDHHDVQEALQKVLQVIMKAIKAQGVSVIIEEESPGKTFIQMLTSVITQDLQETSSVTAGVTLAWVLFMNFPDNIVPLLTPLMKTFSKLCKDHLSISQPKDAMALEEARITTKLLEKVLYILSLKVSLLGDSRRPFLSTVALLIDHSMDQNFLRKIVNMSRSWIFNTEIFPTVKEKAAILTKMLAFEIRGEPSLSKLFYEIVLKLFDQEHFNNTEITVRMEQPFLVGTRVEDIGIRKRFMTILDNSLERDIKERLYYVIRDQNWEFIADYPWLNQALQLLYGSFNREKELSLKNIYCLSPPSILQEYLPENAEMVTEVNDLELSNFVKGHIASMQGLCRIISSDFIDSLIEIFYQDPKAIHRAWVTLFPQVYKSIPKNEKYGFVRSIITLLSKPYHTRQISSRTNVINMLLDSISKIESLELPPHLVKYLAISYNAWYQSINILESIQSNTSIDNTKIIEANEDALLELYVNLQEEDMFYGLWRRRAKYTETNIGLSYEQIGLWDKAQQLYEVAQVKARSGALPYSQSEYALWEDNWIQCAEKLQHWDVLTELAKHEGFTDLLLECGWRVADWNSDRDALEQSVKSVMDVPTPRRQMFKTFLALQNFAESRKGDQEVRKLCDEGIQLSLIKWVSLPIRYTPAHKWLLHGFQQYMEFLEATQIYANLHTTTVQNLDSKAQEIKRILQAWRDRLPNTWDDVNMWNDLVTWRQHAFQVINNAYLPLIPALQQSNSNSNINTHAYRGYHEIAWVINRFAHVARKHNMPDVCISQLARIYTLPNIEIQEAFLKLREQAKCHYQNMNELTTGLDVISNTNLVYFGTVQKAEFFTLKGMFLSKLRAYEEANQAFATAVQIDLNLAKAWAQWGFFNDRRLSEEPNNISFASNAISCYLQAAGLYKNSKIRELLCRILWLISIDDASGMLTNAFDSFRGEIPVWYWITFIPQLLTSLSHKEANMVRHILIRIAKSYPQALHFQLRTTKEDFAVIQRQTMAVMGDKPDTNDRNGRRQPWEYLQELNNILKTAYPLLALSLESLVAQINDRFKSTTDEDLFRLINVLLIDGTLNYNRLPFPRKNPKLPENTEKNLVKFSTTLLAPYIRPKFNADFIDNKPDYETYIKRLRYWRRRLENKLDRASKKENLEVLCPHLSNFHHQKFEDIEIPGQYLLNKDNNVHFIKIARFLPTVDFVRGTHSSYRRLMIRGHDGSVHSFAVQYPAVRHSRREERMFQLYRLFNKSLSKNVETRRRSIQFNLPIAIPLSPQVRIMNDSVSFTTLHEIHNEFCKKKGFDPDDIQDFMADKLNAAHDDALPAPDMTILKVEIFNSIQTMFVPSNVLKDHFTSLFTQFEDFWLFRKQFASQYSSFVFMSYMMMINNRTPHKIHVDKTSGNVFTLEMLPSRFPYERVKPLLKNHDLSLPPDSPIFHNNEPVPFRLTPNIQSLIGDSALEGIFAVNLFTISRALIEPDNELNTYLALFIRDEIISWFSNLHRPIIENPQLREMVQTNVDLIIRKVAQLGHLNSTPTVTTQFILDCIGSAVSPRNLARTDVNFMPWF

Binder	binding result [1]	further results
B1	binds	–
B2	binds	–
B3	–	Kd [2]: 15 ± 11 nM
B4	–	binding result [3]: binds
